According to article PMC11112126:

What was measured:
[1] = target: SH3P2 (Arabidopsis thaliana) (UniProt Q8VWF1); assay: mass photometry; SH3P2 at 100 nM; 25 mM HEPES pH 7.5, 200 mM NaCl, 25 mM KH2PO4 pH 8.0; monomer to dimer
[2] = target: SH3P2 (Arabidopsis thaliana) (UniProt Q8VWF1); assay: mass photometry; SH3P2 at 75 nM; 25 mM HEPES pH 7.5, 200 mM NaCl, 25 mM KH2PO4 pH 8.0; monomer to dimer

Substance: SH3P2 (from UniProt Q8VWF1 1-368) (natural protein)
- percent of dimers at 100 nM [1]: 85%
- stoichiometry N [1]: 2
- percent of dimers at 75 nM [2]: 60%
